Assay results from patent US20150315272A1 (published 2015).

B1: Antibody CA028-0496 (murine IgG1 constant regions) (antibody, V domains shown)
VH: EVQLVESGGGLVQPGGSLRLSCAASGFTFSDYNMAWVRQAPGKGLEWVATITYEGRNTYYRDSVKGRFTISRDNAKNSLYLQMNSLRAEDTAVYYCASPPQYYEGSIYRLWFAHWGQGTLVTVSS
VL: AIQLTQSPSSLSASVGDRVTITCRADESVTTLMHWYQQKPGKAPKLLIYLVSNRESGVPSRFSGSGSGTDFTLTISSLQPEDFATYYCQQTWSDPWTFGQGTKVEIKR
notes: captured by anti-mouse IgG Fc
B2: Antibody CA028-0496 (human IgG4 constant regions) (antibody, V domains shown)
VH: B1 VH
VL: B1 VL
notes: human gamma-4 constant region with hinge mutation S241P and human C-kappa (Km3), made in CHO cells; also called CA028496

Key:
[1] = target: T1, Recombinant IL-17A/F heterodimer (IL-17A and IL-17F linked by a GS linker) (human); assay: Biacore 3000 SPR, 25 C, antibody captured by anti-mouse IgG Fc, cytokine titrated from 25 nM
T1 construct: also called heterodimer A/F; human recombinant IL-17A/F heterodimer
T1 sequence (chain, as listed by the source limits assumed): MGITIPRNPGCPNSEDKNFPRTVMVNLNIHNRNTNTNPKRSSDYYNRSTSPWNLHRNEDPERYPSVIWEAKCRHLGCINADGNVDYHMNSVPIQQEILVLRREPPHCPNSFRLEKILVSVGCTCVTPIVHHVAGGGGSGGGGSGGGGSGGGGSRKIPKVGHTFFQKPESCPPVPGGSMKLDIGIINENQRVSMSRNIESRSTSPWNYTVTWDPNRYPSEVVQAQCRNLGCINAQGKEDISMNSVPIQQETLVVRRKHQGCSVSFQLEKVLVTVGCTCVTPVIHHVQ
Procedure: All experiments were performed at 25° C. Affinipure F(ab′)₂ fragment goat anti-mouse IgG, Fc fragment specific (Jackson ImmunoResearch) was immobilised on a CMS Sensor Chip (Biacore AB) via amine coupling chemistry to a capture level of ≈6000 response units (RUs). HBS-EP buffer (10 mM HEPES pH 7.4, 0.15 M NaCl, 3 mM EDTA, 0.005% Surfactant P20, Biacore AB) was used as the running buffer with a flow rate of 10 μL/min. […] The surface was regenerated at a flowrate of 10 uL/min by a 10 μL injection of 40 mM HCl, followed by a 5 μL injection of 5 mM NaOH.
Double referenced background subtracted binding curves were analysed using the BIAevaluation software (version 3.2) following standard procedures. Kinetic parameters were determined from the fitting algorithm.

[2] = target: T2, IL-17E (UniProt Q9H293 33-177); assay: Biacore 3000 SPR, antibody captured by anti-human IgG Fc
T2 sequence (looked up): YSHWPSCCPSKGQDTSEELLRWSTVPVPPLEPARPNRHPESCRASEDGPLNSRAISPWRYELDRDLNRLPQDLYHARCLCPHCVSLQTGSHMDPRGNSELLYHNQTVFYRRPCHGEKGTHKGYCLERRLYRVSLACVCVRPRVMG
Procedure: (§1) All experiments were performed at 25° C. Affinipure Fc Fragment goat anti-human IgG, Fc fragment specific (Jackson ImmunoResearch) was immobilised on a CMS Sensor Chip via amine coupling chemistry to a capture level of ≈6000 response units (RUs). HBS-EP buffer (10 mM HEPES pH 7.4, 0.15 M NaCl, 3 mM EDTA, 0.005% Surfactant P20, Biacore AB) was used as the running buffer with a flow rate of 10 μl/min. […] The surface was regenerated by a 30 μL injections of 40 mM HCl, followed by one 5 μL injection of 5 mM NaOH.
(§2) Background subtraction binding curves were double referenced and analysed using the BIAevaluation software (version 3.2) following standard procedures. Kinetic parameters were determined from the fitting algorithm.

[3] = target: T3, IL-17D (UniProt Q8TAD2 18-202, limits assumed); assay: as above
T3 sequence (looked up): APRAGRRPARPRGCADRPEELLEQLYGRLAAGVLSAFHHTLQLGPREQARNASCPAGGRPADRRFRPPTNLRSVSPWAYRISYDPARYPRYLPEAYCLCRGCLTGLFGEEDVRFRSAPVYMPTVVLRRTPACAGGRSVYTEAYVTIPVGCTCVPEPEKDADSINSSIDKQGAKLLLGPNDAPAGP
Procedure: as §1, §2

[4] = target: T4, IL-17B (UniProt Q9UHF5 21-180); assay: as above
T4 sequence (looked up): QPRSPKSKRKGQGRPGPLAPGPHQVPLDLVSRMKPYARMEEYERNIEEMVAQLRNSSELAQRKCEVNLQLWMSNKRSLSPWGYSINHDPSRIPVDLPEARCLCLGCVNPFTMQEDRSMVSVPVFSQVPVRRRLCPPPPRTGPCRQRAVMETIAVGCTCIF
Procedure: as §1, §2

[5] = target: T5, IL-17C (UniProt Q9P0M4 19-197); assay: as above
T5 sequence (looked up): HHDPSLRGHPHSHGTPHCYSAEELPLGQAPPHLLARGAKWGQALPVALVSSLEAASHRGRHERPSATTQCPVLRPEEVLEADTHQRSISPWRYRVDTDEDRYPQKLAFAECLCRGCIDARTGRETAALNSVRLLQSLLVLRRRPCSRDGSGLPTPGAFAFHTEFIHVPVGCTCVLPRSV
Procedure: as §1, §2

| Binder | Kd [1] | binding result [2] | binding result [3] | binding result [4] | binding result [5] |
| --- | --- | --- | --- | --- | --- |
| B1 | 0.116 nM | – | – | – | – |
| B2 | – | no binding | no binding | no binding | no binding |
